In publication PMC5939945 (ACS combinatorial science, 2017):

Experiments:
[1] = molecular target: eIF4E (Homo sapiens, UniProt P06730); assay: PPI cat-ELCCA chemiluminescent competition assay of eIF4E–4E-BP1; format: binding
[2] = molecular target: biotinylated eIF4E (eukaryotic translation initiation factor 4E), N-terminal HaloTag fusion (UniProt P06730); assay: PPI cat-ELCCA
[3] = molecular target: biotinylated eIF4E (eukaryotic translation initiation factor 4E), N-terminal HaloTag fusion (UniProt P06730); assay: ELISA

Chain of biotinylated eIF4E (eukaryotic translation initiation factor 4E), N-terminal HaloTag fusion (P06730 whole entry, the tested form may be a part): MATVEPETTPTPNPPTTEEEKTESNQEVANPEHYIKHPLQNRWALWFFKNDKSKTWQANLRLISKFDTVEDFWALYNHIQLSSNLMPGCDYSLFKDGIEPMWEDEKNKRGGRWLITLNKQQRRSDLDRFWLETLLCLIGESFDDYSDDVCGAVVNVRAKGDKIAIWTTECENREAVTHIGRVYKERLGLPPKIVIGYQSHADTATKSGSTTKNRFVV
Chain of unlabeled 4E-BP1 protein (Q13541 whole entry): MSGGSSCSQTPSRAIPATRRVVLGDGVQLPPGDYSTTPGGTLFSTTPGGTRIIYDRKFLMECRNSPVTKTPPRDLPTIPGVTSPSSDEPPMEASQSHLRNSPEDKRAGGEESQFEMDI
Chain of eIF4E (P06730 2-217): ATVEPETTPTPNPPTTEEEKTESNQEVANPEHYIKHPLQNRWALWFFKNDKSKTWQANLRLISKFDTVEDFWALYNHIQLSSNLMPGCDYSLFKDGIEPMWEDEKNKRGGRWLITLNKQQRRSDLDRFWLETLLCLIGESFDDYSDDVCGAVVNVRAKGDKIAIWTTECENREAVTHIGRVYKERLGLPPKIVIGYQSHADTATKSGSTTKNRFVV
Chain of eIF4E (Q13541 2-118 partner): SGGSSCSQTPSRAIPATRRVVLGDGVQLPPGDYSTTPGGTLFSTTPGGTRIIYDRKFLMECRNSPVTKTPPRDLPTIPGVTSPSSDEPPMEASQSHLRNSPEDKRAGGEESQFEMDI
Chain of eIF4E (Q04637 whole entry partner, the tested form may be a part): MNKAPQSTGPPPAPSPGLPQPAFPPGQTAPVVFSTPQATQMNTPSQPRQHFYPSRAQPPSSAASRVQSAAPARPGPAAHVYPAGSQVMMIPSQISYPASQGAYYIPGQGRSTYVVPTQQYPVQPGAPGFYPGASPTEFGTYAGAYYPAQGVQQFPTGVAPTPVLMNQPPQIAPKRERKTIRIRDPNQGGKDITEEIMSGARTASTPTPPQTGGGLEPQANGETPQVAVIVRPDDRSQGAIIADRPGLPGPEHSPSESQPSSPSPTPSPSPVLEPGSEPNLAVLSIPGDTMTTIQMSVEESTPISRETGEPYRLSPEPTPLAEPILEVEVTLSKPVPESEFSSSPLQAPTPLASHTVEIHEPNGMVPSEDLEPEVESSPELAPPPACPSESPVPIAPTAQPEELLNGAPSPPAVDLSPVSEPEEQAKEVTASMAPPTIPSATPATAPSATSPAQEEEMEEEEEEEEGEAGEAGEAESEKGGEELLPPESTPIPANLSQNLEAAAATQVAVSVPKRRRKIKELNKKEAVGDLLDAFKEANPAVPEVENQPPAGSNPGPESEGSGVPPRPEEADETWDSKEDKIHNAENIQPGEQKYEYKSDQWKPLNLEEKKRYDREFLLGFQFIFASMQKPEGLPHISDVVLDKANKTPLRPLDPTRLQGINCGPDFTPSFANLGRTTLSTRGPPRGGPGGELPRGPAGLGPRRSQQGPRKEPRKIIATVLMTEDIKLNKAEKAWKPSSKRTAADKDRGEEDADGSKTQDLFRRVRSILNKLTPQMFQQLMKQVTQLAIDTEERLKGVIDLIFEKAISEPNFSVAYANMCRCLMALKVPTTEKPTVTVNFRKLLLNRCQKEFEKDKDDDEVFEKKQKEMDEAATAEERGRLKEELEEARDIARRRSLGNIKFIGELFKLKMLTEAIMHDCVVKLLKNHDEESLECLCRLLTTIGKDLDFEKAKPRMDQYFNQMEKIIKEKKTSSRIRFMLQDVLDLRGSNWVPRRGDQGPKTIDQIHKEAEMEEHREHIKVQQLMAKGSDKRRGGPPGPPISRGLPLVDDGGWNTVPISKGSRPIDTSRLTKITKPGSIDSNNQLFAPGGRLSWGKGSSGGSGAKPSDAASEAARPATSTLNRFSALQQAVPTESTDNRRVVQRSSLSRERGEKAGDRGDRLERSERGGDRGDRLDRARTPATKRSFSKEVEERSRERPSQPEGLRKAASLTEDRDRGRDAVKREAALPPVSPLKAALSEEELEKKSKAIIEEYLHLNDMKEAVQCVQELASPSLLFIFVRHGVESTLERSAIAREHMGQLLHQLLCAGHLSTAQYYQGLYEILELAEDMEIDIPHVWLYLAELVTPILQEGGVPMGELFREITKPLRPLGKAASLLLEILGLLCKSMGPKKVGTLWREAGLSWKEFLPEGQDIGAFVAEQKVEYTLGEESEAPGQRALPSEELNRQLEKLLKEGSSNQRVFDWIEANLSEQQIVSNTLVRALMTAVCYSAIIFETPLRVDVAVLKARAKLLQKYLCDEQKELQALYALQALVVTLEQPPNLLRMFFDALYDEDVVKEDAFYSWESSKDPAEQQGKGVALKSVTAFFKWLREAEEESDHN

IC50 [1] [nM]	IC50 [2] [nM]	Kd [3] [nM]	Compound
1800 ± 600	–	–	O=C(O)c1ccc(N2C(=O)/C(=C\c3ccc(-c4ccc([N+](=O)[O-])cc4)o3)C=C2c2ccccc2)cc1 [4E1RCat]
–	11	19	unlabeled 4E-BP1 protein (from UniProt Q13541 1-118) (natural protein; other documents disagree on this pair)
